Reference: US20210206875A1, “ERBB-2 TARGETING AGENT AND A BISPECIFIC ANTIBODY WITH ANTIGEN-BINDING SITES THAT BIND AN EPITOPE ON AN EXTRACELLULAR PART OF ERB-2 AND ERBB-3, FOR TREATMENT OF AN INDIVIDUAL WITH AN ERBB-2, ERBB-2/ERBB-3 POSITIVE TUMOUR” (Merus N.V., priority 2017, published 2021)

Assays:
BxPC-3-luc2 cells = experiment: HRG dependent BxPC-3-luc2 proliferation assay; assay type: cell-based, human
Procedure: (§1) SK-BR-3 cells were cultured in DMEM-F/12 supplemented with L-glutamine and 10% heat inactivated FBS. BxPC-3-luc2 cells were cultured in RPMI1640 supplemented with 10% heat inactivated FBS. MCF-7 cells were cultured in RPMI1640 supplemented with 100 μM, NEAA1 mM sodium pyruvate, 4 μg/ml insulin and 10% heat inactivated FBS.
Antibodies were diluted to concentrations of 10 and 1 μg/ml and added in a volume of 100 μl in 96-well black bottom plates (ABgene AB-0932). […] Fluorescence was measured at 550 nm excitation with 590 nm emission wave length.

MCF-7 cells = experiment: HRG dependent MCF-7 proliferation assay; assay type: cell-based, human; details: HRG dependent MCF-7 assay
Procedure: as §1
For the proliferation assay of MCF-7 and BxPC-3-luc2 cells, subconfluent cell cultures were washed with PBS, trypsinized and trypsin was inactivated by adding culture medium. Cells were washed twice in large volumes of assay medium (RPMI 1640 medium containing 0.05% BSA and 10 μg/ml Holo Transferrin). MCF-7 cells were diluted to 5×10^4 cells/ml in culture medium. Antibodies were diluted to concentrations of 10 and 1 μg/ml and added in a volume of 100 μl in 96-well black bottom plates (ABgene AB-0932). Cells were added at a density of 5000 cells/well in the presence of 1 ng/ml final concentration human Recombinant Human NRG1-beta 1/HRG1-beta 1 EGF Domain; (396-HB-050 RND). Human NRG1-beta 1/HRG1-beta 1 EGF Domain will hereinafter be referred to as HRG. […] Fluorescence was measured at 550 nm excitation with 590 nm emission wave length.
The IC50 for the bispecific antibodies, monoclonals and comparator antibodies was calculated using non-linear regression analysis with Prism software.

B1: #Ab6: anti-HER3 antibody of Merrimack Pharmaceuticals, recloned in IgG1 backbone (antibody, chains of the INN, looked up, V domains shown)
VH: EVQLLESGGGLVQPGGSLRLSCAASGFTFSHYVMAWVRQAPGKGLEWVSSISSSGGWTLYADSVKGRFTISRDNSKNTLYLQMNSLRAEDTAVYYCTRGLKMATIFDYWGQGTLVTVSS
VL: QSALTQPASVSGSPGQSITISCTGTSSDVGSYNVVSWYQQHPGKAPKLIIYEVSQRPSGVSNRFSGSKSGNTASLTISGLQTEDEADYYCCSYAGSSIFVIFGGGTKVTVL
modifications: IgG1
notes: anti-HER3 antibody of Merrimack Pharmaceuticals, recloned in IgG1 backbone
- BxPC3 % Inhibition (BxPC-3-luc2 cells): −7%
- IC50 (MCF-7 cells): 504 pM
